Here are results for seven substances from patent US20140248303A1.

Assay [1] has as its target full length CbpA (CbpA-NR12) (Streptococcus pneumoniae Tigr4 strain). Briefly: competitive inhibition of rCbpA-coated latex beads binding to activated RBCEC6 cells by the LR peptide.
Assay [2] deals with 37/67 laminin receptor (LR) (Homo sapiens (Human)) (UniProt P08865). Briefly: adhesion of construct-labeled latex microspheres to fixed TNF-activated RBCEC6 cells.
For assay [3] the target is unchanged. Briefly: cell-based or functional assay.
Assay [4] shares this target. Briefly: adhesion of labeled latex microspheres to RBCEC6 cells.
In assay [5] the target is native CbpA of S. pneumoniae Tigr4 / T4R (on bacteria or in pneumococcal lysate) (Streptococcus pneumoniae Tigr4 strain). Briefly: cell-based or functional assay.

For the substance “peptide corresponding to amino acids 161-180 of the laminin receptor”, the adhesion of rCbpA-coated latex beads, % of control in assay [1] was 93 % of control.
In assay [2], CbpA-R1 registered a bead adherence to RBCEC6 cells, % (compared with full length CbpA-NR12 beads) of 10%.
The substance “CbpA P393G (as printed) expressed on a CbpA- S. pneumoniae strain” yielded an adherence to endothelial cells of a CbpA- strain expressing the mutant, less than wild type CbpA in assay [3] of 39 % less.
As for “peptide corresponding to amino acids 263-282 of the laminin receptor”, the adherence of rCbpA-coated latex beads, % of control in assay [1] is 38 % of control.
full length CbpA (CbpA-NR12): in assay [4], the fold binding over control thioredoxin labeled beads is 20 fold.
In assay [3], “native CbpA of S. pneumoniae Tigr4 / T4R (on bacteria or in pneumococcal lysate)” returned a pneumococcal (T4R) adherence to activated RBCEC6 cells, inhibited by anti-LRP r711 of 54%; a pneumococcal (T4R) adherence to activated RBCEC6 cells, inhibited by laminin of 47%; a pneumococcal (T4R) invasion of activated RBCEC6 cells, inhibited by anti-LRP r711 of 31%; a pneumococcal (T4R) invasion of activated RBCEC6 cells, inhibited by laminin of 36%.
In the case of “LMWWML palindromic sequence within the 161-180 laminin-binding domain (peptide)”, the bacterial adhesion to activated RBCEC6 cells, % of control in assay [5] is 108 % of control.
